Source: the nanobody polyreactivity screen of Harvey et al. (2022)

experiment: yeast display, Sf9 membrane polyspecificity reagent, FACS + sequencing; frameworks hold sequencing errors
Procedure, shortened: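 A nanobody's polyreactivity label depends on the gate it was sorted from. Yeast display cells were stained with 10% biotinylated, detergent-solubilized Sf9 membrane reagent for 1 hour at 4 °C, enriched on streptavidin microbeads and sorted by FACS. The low and high (top ~1%) gates were set on anti-HA fluorescence for expression and streptavidin fluorescence for reagent binding.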

Row | Sequence | polyreactivity (PSR sort gate)
1 | QVQLVESGGGLVQAGGSLRLSCAASGSIFARYTMGWYRQAPGKERELVARITSSGGSTYYADSVKGRFTISRDNAKNTVYLQMNSLKPEDTAVYYCAARYRRYVRFQGDYWGQGTQVTVSS | high polyreactivity
2 | QGQLVESGGRLVQAGGSLRLSCAASGFIFDAYAMGWYRQAPWKERELVAAIDYSGGNTYYADSVTGRFTISRDNAKNTVYLQMNSLTPEDTAVYYCNADYAGSFWSREYDYWGQGTQVTVSS | low polyreactivity
3 | QVQLVESGGGLVQAGGSLRLSCAASGSIFITYAMGWYIQAPGKERELVTAIRDSGDRTYYADSVKGRFTISRDNAKNTVYLQMNSLKPEDTSVYYCAAVLYSRLYWDRLDYWGQGTQVTVSS | low polyreactivity
4 | QVQLVESGGGLVQAGGSLRLSCAASGLIFSSYAMGWYRQAPGKERELVAAITGSGGRTYYADSVKGRFTISRDNAKNTVYLQMNSLKPEDTAVYYCAAKYPDPRYYTGYDYWGQGTQVTVSS | high polyreactivity
5 | QGQLVESGGGLVQAGGSLRLTCAASGSIFYVYDIGWYRPAPGKERELVANIRDGGITYADSVKGRFTISRDNAKYTVYLQMNSLKPEDTAVYYCARDDTSPGYGDQSSNAAYYYWGQGTQVTVSS | low polyreactivity
6 | QVQLVESGGGLVQAGGSLRLSCAASGSIFDSYAMGWYRQAPGKERELVASISSDGGGTYYADSVKGRFTISRDNAKNTVYLQMNSLKPEDTAVYYCARTRTYNSRTMDYWGQGTQVTVSS | low polyreactivity
7 | QVQLVESGGGLVQAGGSLSLSCAASGFIFHYYAMAGYRQAPGKERELVAAISKTVGSTYYADSVKGRFTISRDNAKNTVYLQMNSRKPEDTAVYYCAVGYSRRNTPYDYWGQGTQVTVSS | high polyreactivity
8 | QVQLVESGGGLVQAGGSLRLSCAASGRIFWANAMGWYRQAPGKERELVAAISYSGVSTYYADSVKGRFTISRDNAKNTVYLQMNSLKPEDTAVYFCAADRYRKYYYWGQGTQVTVSS | high polyreactivity
9 | QVQLVESGGGLVQAGGSLRLSCAASGLIFTDYVMGWYRQAPGKEREFVAAITGSAGRTYYADSVKGRFTISRDNAKNTVYLQMNSLKPEDTAVYYCNADYWWWHEYDYWGQGTQVTVSS | high polyreactivity
10 | QVQLVESGGGLVQAGGSLRLSCAASGRIFARYAMGWYRQAPGKERELVAAISRGGSTKYADSVKGRFTISRDNAKNTVYLQMNSLKPEDTAVYYCARQLWGSPYGAYYAGDYWGQGTQVTVSS | low polyreactivity
11 | QVQLVESGGGLVQAGGSLRLSCAASGSIFQYNTMGWYRQAPGKERELVAAINWSGVSTYYADSVKGRFTISRDNAKNTVYLQMNSLKPEDTAVYYCNARRYVAGSYIYERGYWGQGTQVTVSS | high polyreactivity
12 | QVQLVESGGGLVQAGGSLRLSCAASGRIFTYYTKGWSRQAPGKERELVAAITRGGITNYADSVKGRFTISRDNAKNTVYLQMNSLKPEDTAVYYCNAVARVYSEGIRYGYWGQGTQVTVSS | high polyreactivity
13 | QVQLVESGGGLVQAGGSLRLSCAASGSISQTYAMGWYRQAPGKERELVAAISSSGASTYYADSVKGRFTISRDNAKNTVYLQMNCLKPEDTAVYYCAALGRYRYIYNYWGQGTQVTVSS | high polyreactivity
14 | QVQLVESGGGLVQAGGSLRLSCAASGSIFYYNAKGWYRQAPGKERELVAGIRRSGDSTYYADSVKGRFTISRDNAKNTVYLQLNRLKPEDTAVYYCAADRVYEASQGYTYFDYDYWGQGTQVTVSS | low polyreactivity
15 | QVQIVESGGGLVQAGGSLRLSCAASGFTFLWYAMGWYRQAPGKERELVAAINSGGRTNYADSVKGRFTISRDNAKNTVYLQMNSLKPEDTAVYYCAKRRPLYAHPDDYWGQGTQVTVSS | low polyreactivity
16 | QVQLVESWGGLVQAGGSLRLSCAASGSTLYQYDMGWYRHAPGKEREYLAAITTYGDSTYYADSVKGRFTISRDNAKNTVYLQMNSLKPEDTAVYYCNADVFKTVFYIDRYYYWGQGTQVTVSS | low polyreactivity
17 | QVQLVESGGGLVQAGGSHRFSCAASGRIFYGHVMGWYRQAPGKERELVADISYDGGSTYYADSVKGRFTISRDNAKKTVYLQMNSLNPEDTAVYYGATRFVYRYTFWYYSTEYNYCGQGTQVTVSS | low polyreactivity
18 | QFQLVESGGGLVQAGGSLRLSCAASGSTLAPYVMGWYRQAPGKDRELVAVISTRTGRPYYADSVKGRFTISRDNAKNTVYLQMNSLKPEDTGVYYCAARKKTTYRDWGRHDYWGQGTQVTVSS | high polyreactivity
19 | QVQLVESGGGLVQAGGSLRLSCAASGSTFLYNTMGWYRQSPGKERELVAAITWSGGNTYYADSVKGRFTISRDNAKNTVYLQMNSLKPEDTAVYYCNAVWYPPKRKGFDYWGQGTQVTVSS | low polyreactivity
20 | QVQLVESGGGLVQAGGSLRLSCAASGSIFWRYAMGWYRQAPGKERELVATITSRGGSTYYADSVKGRFTISRDNAKNTVYLQMNSLKQEDTAVYYCAAGWLPKYGYWGQGTQVTVSS | low polyreactivity
21 | QVQLVESGGGLVQAGGSLRLSCAASGLTFRRNAMGWYRQAPGKERELVAAISSGGVRTYYADSVKGRFTISRDNAKNTVYLQMNSLKPEDTAVYYCAAEDYAQRYTHYESWGQGTQVTVSS | low polyreactivity
22 | QVQLVESGGGLVQPGGSLRLSCAASGRIFGWYAMGWYRQAPGKERELVAAITWSGTSTYYADSVKGRFTISRDNAKNTVYLQMNSLKPEDTAVYYCAADSLRGSAPTYYSTLEYWGQGTQVTVSS | low polyreactivity

Row | Sequence | polyreactivity (PSR sort gate)
23 | QVQLVESGGGLVQAGGSLRLSCAASGRTFSYYAMGWYRQAPGKERELVAAITSGGGRTYYADSVKGRFTISRDNAKNTVYLQMNSLKPEDTAVYYCNKAYVSRYDYWGQGTQVTVSS | high polyreactivity
24 | QVQLEESGGGLVQAGGSLSLSCDASGRNFEGYAMGWYRQAPGKERELVAAINWSGGTTHYADSVKGRFTISRDNANNTVYLQINSLKPADTAVYYCAVRGRTPYDYWGQGTQVTVSS | low polyreactivity
25 | QVQLVESGGGLVQAGGSLRLSCAASGRIFPRNAMGWYSPAPGKERELVAAITRAGSTYYADSVKGRFTISRDNAKNTVYLQLNSLKPEDTAVYYCNRQWHRDVYGHDYWGQGTQVTVSS | high polyreactivity
26 | QVQLVESGGGLVQAGGSLRLSCAASGRILGAYAMGWYRQAPGKERELVASISSGGRTYYADSVKGRFTISRDNAKNTVYLQMNSLKPEDTAVYYCNRDRNSGFYRRYGYWGQGTQVTVSS | high polyreactivity
27 | QVQLVESGGGLVQAGGSLRLSCAASGITFRLYAMGWYRQAPGKERELVAAISKRGGSTYYADSVKGRFTISRDNAKNTVYLQMNSLKPEDTAVYYCAADSGWEHRYDYWGQGTQVTVSS | high polyreactivity
28 | QVQLVESGGGLLQAGGSLRLSCAASGRTLVSYAMGWYRQAPGKERELVATISWSGGSTYYADSVKGRFTISRDTAKNTVYLQIYSLKPEDTAGYDCNRSLTGYDELGYPVPYTYDYWGQGTQVTVSS | low polyreactivity
29 | QVQLEESGGGLVQAGGSLRLSCAASGRTSYGYAMGWYRQAPGKERELVAAISSGGRTNYADSVKGRFTISRDNAKNTVYLQMNSLKPEDTAVYYCAKRYRYRPSYDYWGQGTQVTVSS | high polyreactivity
30 | QVQLVESGGGLVQAGGSLRLSSAASGSTFRFNAKGWYRQAPGKERELVARISTIGGNTFYADSVKGRFTISRDNAKNTVYLQMNSLKTEDTAVYYCATTGGPSCRKYVYWGQGTQVTVSS | high polyreactivity
31 | QVQLVESGGGLVQAGGSLRLSCAASGLIFYVYAMGWYRQAPGKERELVATISSSGGSTYYADSVKGRFTISRDNAKNTVYLQMNSLKPEDTAVYYCAARWSHYRTGWGDTSYHYYYWGQGTQVTVSS | high polyreactivity
32 | QVQLVESGGGLVQAGGSLRLSCAASGIIFGYNVMGWYRQAPGKERELVAAISGSGSSTYYADSVKGRFTISRDNAKITVYLQMNSLKPEDTAVYYCAARRYSTKRWRMYYWGQGTQVTVSS | high polyreactivity
33 | QVQLVESGGGLGQAGGSLRLSCAASGRIFDYYAMGWYRQAPGKERELVATITSGSRTYYADSVKGRFTISRDNAKNTVYLQMNSLNPEDTAVYSCAAVKRSYYKGEYNAYDYWGQGTQVTVSS | high polyreactivity
34 | QVQLVESGGGLVQAGGSLRLSCAASGFIFRDYAMGWYRQAPGKERELVAAIDYSGGSTNYADSVKGRFTISRDNAKNTVYLQMNSLKPEDTAVYYCNAEYTWHRGYEYWGQGTQVTVSS | low polyreactivity
35 | QVQLVESGGGLVQAGGSLRLSCAASGRTFFRNAMGWDRQEPGSERELVAGISRSGGSTYYADSVKGRFTISRDNAKNTGYLQMNSLKPEDTAVYYCAAALYPYPGYEYWGQGTQVTVSS | high polyreactivity
36 | QVQLVESGGGLVQAGGSLRLSCAASGRIFHQYGMGGYSQAPGKERELVAAIRSGDSTNYADSVKGRFTISRDNAKNTVYVQMNSLKPEDTAVYYCARDRPGDYAGYDYWGQGTQVTVSS | low polyreactivity
37 | QVQLVESGGGLVQAGGSLRLSCAASGSILVEYAMGWYRQAPGKERELVAGISGSTGTTYYADSVKGRFTISRDNAKNTVYLQMNSLKPEDTAVYYCAKLFPVARPQYGYWGQGTQVTVSS | low polyreactivity
38 | QVQLVASGGGLVQAGGSLRLSCAASGSIFSYYTMGWYSQAPGKERELVASISRSGGRTNYADSVKGRFTISRDNAKNTVYLQMNSLKPEDTAVYYCKTERWGPYPHKRYNYWGQGTQVTVSS | high polyreactivity
39 | QDQLVESGGGLVQAGGSLRLSCAASGLIYSYYALGWSRQATGKERELVASISRSGGSTYYADSVKGRFTISRDNAKNTVYLQMNILKPEDPAVYYCDAPGYYRTSRMDYWGQGTQVTVSS | high polyreactivity
40 | QFQLVESGGGLVQAGGRLRLSCAASGYTFYSYAMGWSRQAPGKERELVASITRRVGGTYYADSVKGRFTISRDNAKKTVYLQMNSLKPEDTAVYYCAAGYYHKKSSTDIEKYWGQGTQLTVSS | low polyreactivity
41 | QDQLVESGGGLVQAGASLRLSCAASGSNGYYAMGWYRQAPGKERELVAVISRSGTGTYYADSVKGRFTISRDNAKNSVYLQMNSLKPEDTAVYYCNAETYTYRYEYDYWGQGTQVTVSS | high polyreactivity
42 | QVQLVESGGGLVQAGGSLRLSCAASGITFDSYAMGWYRQAPGKERELVATISRSGTTTYYADSVKGRFTISRDNAKNTGYLQMNSLKPEDTAVYYCNTLRDYWTYHFYGAVRDGYDYWGQGTQVTVSS | low polyreactivity
43 | QVQLVESGGGLVQAGGSLRLSCAASGRTFYTYTMGWYRQAPRKEREFVAAISSSGSSTYYADSVKGRFTISRDNAKNTVYLQMNSLKPEDTAVYYCAATSYSYPGYFRYDYWGQGTQVTVSS | high polyreactivity
